The record followed here is patent publication US7279548 (CYTOGEN, dated 2007).

No end group written: not given here. *: point of attachment. Biotin = O=C1N[C@H]2[C@H](CS[C@H]2CCCCC(=O)*)N1

The target in experiment [1] is T1, WWP1.2 WW domain expressed as GST fusion protein (human).
T1 construct: Whole WWP1 entry named; not shown: glutathione S-transferase (GST) fusion partner
Kind of experiment: ELISA cross affinity mapping, GST-WW fusion. (ELISA stands for enzyme-linked immunosorbent assay.)

Experiment [2] concerns the target T2, WWP3 WW domain expressed as GST fusion protein (human).
T2 construct: Whole WWP3 entry named; not shown: glutathione S-transferase (GST) fusion partner
Kind of experiment: ELISA cross affinity mapping, GST-WW fusion.

For experiment [3], the target named is T3, WWP2.4 WW domain expressed as GST fusion protein (human).
T3 construct: Whole WWP2 entry named; also called WW2.4; not shown: glutathione S-transferase (GST) fusion partner
T3 sequence (chain, as listed by the source): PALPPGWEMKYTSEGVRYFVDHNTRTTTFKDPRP
In words: ELISA cross affinity mapping, GST-WW fusion.

Experiment [4] deals with T4, WWP2.1 WW domain expressed as GST fusion protein (human).
T4 construct: Whole WWP2 entry named; not shown: glutathione S-transferase (GST) fusion partner
T4 sequence (chain, as listed by the source): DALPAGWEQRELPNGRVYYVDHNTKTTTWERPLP
In words: ELISA cross affinity mapping, GST-WW fusion.

Experiment [5] has as its target T5, WWP1.4 WW domain expressed as GST fusion protein (human).
T5 construct: Whole WWP1 entry named; not shown: glutathione S-transferase (GST) fusion partner
Kind of experiment: ELISA cross affinity mapping, GST-WW fusion.

In experiment [6] the target is T6, WWP1.1 WW domain expressed as GST fusion protein (human).
T6 construct: Whole WWP1 entry named; not shown: glutathione S-transferase (GST) fusion partner
T6 sequence (chain, as listed by the source): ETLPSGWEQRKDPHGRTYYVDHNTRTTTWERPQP
In words: ELISA cross affinity mapping, GST-WW fusion.

Experiment [7] concerns the target T7, WWP2.3 WW domain expressed as GST fusion protein (human).
T7 construct: Whole WWP2 entry named; not shown: glutathione S-transferase (GST) fusion partner
In words: ELISA cross affinity mapping, GST-WW fusion.

In experiment [8] the target is T8, WWP2.2 WW domain expressed as GST fusion protein (human).
T8 construct: Whole WWP2 entry named; not shown: glutathione S-transferase (GST) fusion partner
T8 sequence (chain, as listed by the source): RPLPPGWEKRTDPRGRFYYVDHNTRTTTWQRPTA
In words: ELISA cross affinity mapping, GST-WW fusion.

In experiment [9] the target is T9, WWP1.3 WW domain expressed as GST fusion protein (human).
T9 construct: Label WWP1.3 follows the pattern of the printed labels; whole WWP1 entry named; not shown: glutathione S-transferase (GST) fusion partner
T9 sequence (chain, as listed by the source): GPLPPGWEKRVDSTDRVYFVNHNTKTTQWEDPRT
Kind of experiment: ELISA cross affinity mapping, GST-WW fusion.

For experiment [10], the target named is T1, WWP1.2 WW domain expressed as GST …. In words: cross affinity mapping, GST-WW fusion.
In experiment [11] the target is T3, WWP2.4 WW domain expressed as GST …. Kind of experiment: cross affinity mapping, GST-WW fusion.
Experiment [12] addresses T4, WWP2.1 WW domain expressed as GST …. In words: cross affinity mapping, GST-WW fusion.
For experiment [13], the target named is T5, WWP1.4 WW domain expressed as GST …. In words: cross affinity mapping, GST-WW fusion.
Experiment [14] has as its target T6, WWP1.1 WW domain expressed as GST …. Kind of experiment: cross affinity mapping, GST-WW fusion.
In experiment [15] the target is T7, WWP2.3 WW domain expressed as GST …. In words: cross affinity mapping, GST-WW fusion.
In experiment [16] the target is T8, WWP2.2 WW domain expressed as GST …. In words: cross affinity mapping, GST-WW fusion.
In experiment [17] the target is T9, WWP1.3 WW domain expressed as GST …. Kind of experiment: cross affinity mapping, GST-WW fusion.

T2 sequence (chain, as listed by the source): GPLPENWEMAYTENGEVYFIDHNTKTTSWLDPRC
T1 sequence (chain, as listed by the source): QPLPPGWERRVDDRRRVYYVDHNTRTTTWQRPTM
T7 sequence (chain, as listed by the source): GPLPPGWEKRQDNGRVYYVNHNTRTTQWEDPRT

In the case of Biotin-SGSGPGTPYPPPPEFY (Tested as SA-AP complex) [WBP-2B peptide (biotin-SGSGPGTPYPPPPEFY)], the binding result in experiment [1], in [2], in experiment [3], in experiment [4], in experiment [5] and in [6] was “no binding” in each case. Moreover, the binding result in experiment [7], in experiment [8] and in experiment [9] was “no binding” throughout.
Take NRLDLPPAETFED (also: biotinylated, Short peptide): the binding result in experiment [10], in experiment [11], in experiment [12], in experiment [13], in experiment [14] and in [15] was “no binding” in each case. Besides, the binding result in experiment [16] and in experiment [17] was “no binding” throughout.
Regarding Biotin-SGSGYVQPPPPPYPGPM (Tested as SA-AP complex) [WBP-2A peptide (biotin-SGSGYVQPPPPPYPGPM)], the binding result in experiment [2] is on record as “binds”.
Turning to Biotin-SGSGYVQPPPAPYPGPM [WBP-2A-Pro4 (alanine substitution of the third proline of the PPPPY motif of WBP-2A)], the binding result in experiment [1], in experiment [2], in experiment [3], in experiment [4], in [5] and in [6] was “no binding” throughout. The binding result in experiment [7], in [8] and in experiment [9] was “no binding” each time.
Biotin-SGSGPGTPPAPYTVGPGY (not fully specified) [WBP-1-Pro3 (alanine substitution at the third proline position of the PPPPY motif of WBP-1)]: the binding result in experiment [1], in experiment [3], in [4], in experiment [5], in [6] and in experiment [7] was “no binding” in each case. For the same molecule, the binding result in experiment [8] and in [9] was “no binding” each time.
Turning to Biotin-PGTPPPNHDSLRL [ENaCβ-Y618H peptide], the binding result in experiment [10], in [11], in experiment [12], in experiment [13], in experiment [14] and in experiment [15] was “no binding” each time. Further, the binding result in [16] and in experiment [17] was “no binding” each time.
Consider Biotin-SGSGPGTPPPPYTVGPGY (Tested as streptavidin-enzyme complex) [WBP-1 peptide (biotin-SGSGPGTPPPPYTVGPGY)], for which the binding result in [2] is “no binding”.
Regarding Biotin-PGTPPLNYDSLRL [ENaCβ-P616L peptide], the binding result in experiment [10], in experiment [11], in experiment [12], in [13], in experiment [14] and in experiment [15] was “no binding” each time. Moreover, the binding result in experiment [16] and in [17] was “no binding” each time.
Turning to NRLDLPPAKSYEQ (also: biotinylated, Short peptide), the binding result in [10], in experiment [11], in [12], in [13], in [14] and in experiment [15] was “no binding” in each case. Besides, the binding result in experiment [16] and in experiment [17] was “no binding” throughout.
